# Test results reported in PMC2966024.
# Target: PspB-T25 fusion (Y. enterocolitica PspB with Cya-T25 fused to its C-terminus) (Y. enterocolitica)
# Test: two-hybrid
substance,measurement,value
PspA-T18 fusion (Y. enterocolitica PspA with Cya-T18 fused to its C-terminus) (from UniProt Q9F4H4 1-221) (natural protein),beta-galactosidase activity,1470 Miller units
